The values that follow come from US20140120109A1.

The target in assay [1] is full length human TL1A expressed on HEK293 cells (human) (UniProt O95150). Description: flow, HEK293/hTL1A, isotype control 1 ug/ml in place of anti-hTL1A (background; same value as r16c2, printed under column 1725P).
Assay [2] shares this target. In words: flow, HEK293/hTL1A, isotype control 1 ug/ml in place of anti-hTL1A (background; same value as r16c2, printed under column 1742P).
For assay [3] the target is unchanged. Description: flow, HEK293/hTL1A, isotype control 1 ug/ml in place of anti-hTL1A (background; same value as r16c2, printed under column 1804N).
Assay [4] has the same target. In words: flow, HEK293/hTL1A, isotype control 1 ug/ml in place of anti-hTL1A (background; same value as r16c8, printed under column 1745P).
Assay [5] shares this target. In words: flow, HEK293/hTL1A, isotype control in place of anti-hTL1A (background; columns c8-c9).
The target is the same in assay [6]. In words: flow, HEK293/hTL1A, isotype control in place of anti-hTL1A (background; columns c2-c7).
Assay [7] has the same target. In words: flow, HEK293/hTL1A, isotype control 1 ug/ml in place of anti-hTL1A (background; same value as r16c2, printed under column 1817N).
Assay [8] shares this target. In words: flow, HEK293/hTL1A, isotype control 1 ug/ml in place of anti-hTL1A (background; same value as r16c2, printed under column 1805N).

Sequence of full length human TL1A expressed on HEK293 cells (human) (O95150 whole entry): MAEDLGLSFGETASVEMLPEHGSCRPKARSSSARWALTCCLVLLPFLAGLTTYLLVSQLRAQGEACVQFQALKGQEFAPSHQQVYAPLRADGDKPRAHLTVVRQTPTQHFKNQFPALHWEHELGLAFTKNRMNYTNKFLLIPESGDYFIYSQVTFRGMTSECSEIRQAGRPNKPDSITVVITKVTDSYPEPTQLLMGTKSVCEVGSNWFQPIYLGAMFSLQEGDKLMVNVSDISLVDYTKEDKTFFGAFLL

As for “negative isotype control antibody (human IgG4)”, the MFI in assay [1] was 27.5; in assay [2], 27.5; in assay [3], 27.5; in assay [4], 17.9; in assay [5], 17.9; in assay [6] it was 27.5. The MFI in assay [7] and in assay [8] was 27.5 in each case.
